Measured values published in US20170334973A1 (INTEGRATED BIOTHERAPEUTICS, published 2017).

Tests used:
SUDV VLP = target: T1, SUDV VLP (Sudan virus (SUDV), UniProt Q66814 33-676); experiment: ELISA
T1 sequence: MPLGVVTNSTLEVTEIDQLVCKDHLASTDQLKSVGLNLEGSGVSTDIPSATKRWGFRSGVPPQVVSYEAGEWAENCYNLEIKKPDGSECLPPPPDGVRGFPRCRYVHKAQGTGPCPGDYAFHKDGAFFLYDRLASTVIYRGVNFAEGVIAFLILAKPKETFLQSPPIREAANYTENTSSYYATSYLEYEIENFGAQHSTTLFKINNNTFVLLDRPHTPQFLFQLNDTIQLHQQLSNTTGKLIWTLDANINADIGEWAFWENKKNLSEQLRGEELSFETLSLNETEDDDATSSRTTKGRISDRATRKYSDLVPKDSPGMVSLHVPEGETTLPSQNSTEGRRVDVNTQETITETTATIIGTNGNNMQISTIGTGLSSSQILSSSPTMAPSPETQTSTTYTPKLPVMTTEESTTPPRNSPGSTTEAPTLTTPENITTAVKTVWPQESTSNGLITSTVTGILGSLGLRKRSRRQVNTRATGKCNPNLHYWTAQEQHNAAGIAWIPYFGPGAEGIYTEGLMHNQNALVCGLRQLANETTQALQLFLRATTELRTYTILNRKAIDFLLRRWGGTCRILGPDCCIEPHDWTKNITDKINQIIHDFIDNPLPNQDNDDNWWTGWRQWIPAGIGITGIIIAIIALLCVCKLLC

EBOV VLP = target: T2, EBOV VLP (Ebola virus (EBOV), UniProt Q05320 33-676); experiment: ELISA
T2 sequence: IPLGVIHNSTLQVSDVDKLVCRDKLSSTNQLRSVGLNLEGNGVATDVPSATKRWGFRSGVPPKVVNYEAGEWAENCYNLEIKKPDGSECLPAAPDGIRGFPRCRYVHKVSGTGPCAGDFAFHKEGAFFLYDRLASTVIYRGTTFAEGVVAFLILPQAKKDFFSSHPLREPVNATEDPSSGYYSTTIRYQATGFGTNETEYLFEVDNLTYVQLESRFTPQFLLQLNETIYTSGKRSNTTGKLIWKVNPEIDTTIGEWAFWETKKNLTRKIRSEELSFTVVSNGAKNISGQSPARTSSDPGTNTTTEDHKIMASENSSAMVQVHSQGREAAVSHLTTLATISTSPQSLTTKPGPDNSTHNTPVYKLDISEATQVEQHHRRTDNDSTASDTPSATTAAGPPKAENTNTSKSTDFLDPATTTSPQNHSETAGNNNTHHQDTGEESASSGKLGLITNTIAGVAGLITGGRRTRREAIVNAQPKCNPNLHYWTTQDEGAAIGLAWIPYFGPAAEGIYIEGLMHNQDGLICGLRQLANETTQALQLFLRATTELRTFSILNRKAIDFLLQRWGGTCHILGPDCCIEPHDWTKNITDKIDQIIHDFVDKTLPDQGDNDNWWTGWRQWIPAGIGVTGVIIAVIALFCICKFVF

B1: FVM28 (antibody, V domains shown)
VH: EVQLVQSGAEVKRPGESLKISCQTSGYRFTSSWISWVRQMPGKGLEWMGAIDPSDSETRYSPSFQGQVTISADKSISTAYLKWSSLKASDTATYYCVKGSETWGQGVLVTVSS
VL: QAALTQPASLSASPGASASLTCTFSGGINVAGYHILWYQQKPGSPPRYLLRYKSDSEKDQGSGVPSRFSGSKDASANRGILRISGLQSEDEADYYCAIGHSSSGWVFGGGTRLTVL
With B1 the EC50 (SUDV VLP) was 0.58 nM and the EC50 (EBOV VLP) was 0.593 nM.

B2: FVM35 (antibody, V domains shown)
VH: EVQLVQSGAEVKRPGESLTISCKTSGYSFTSYWITWVRQMPGKGLEWLGSIYPGDSETKYNPSFQGHVTISADKSVTTTYLKWSSLKASDTATYYCVKGSETWGQGVLVTVSS
VL: QPVLTQPASLSASPGASASLTCTFSGGINVAGYNILWYQQKAGSPPRYLLRYKSDSTKDQGSGVPSRFSGSKDASANTGILRISGLQSEDEADYYCAIGHSSGWIFGGGTRLTVL
B2 gave an EC50 (SUDV VLP) of 0.14 nM and an EC50 (EBOV VLP) of 0.233 nM.

B3: FVM23 (antibody, V domains shown)
VH: QVQLVQSGAEVKRPGESLTISCKTSGYSFTGSWISWVRQMPGKGLEWMGSIYPGDSDTTYNPSFQGHVTISADKSISTAYLQWTSLKASDTATYYCVKGSETWGQGVLVTVSS
VL: SYELTQPASLSASPGASASLTCTFSGGINVAGYNILWYQQKAGSPPRYLLRYKSDSTKDQGSGVPSRFSGSKDASANTGILRISGLQSEDEADYYCAIGHSSGLIFGAGTRLTVL
For B3, the EC50 (SUDV VLP) was 0.353 nM and the EC50 (EBOV VLP) was 0.367 nM.

B4: FVM21 (antibody, V domains shown)
VH: EVQLVESGAEVKRPGESLTISCKTSGYSFTDSWVAWVRQMPGKGLEWLGSIYPGDSETKYNPSFQGHVTISADKSISTTYLQWSSLRASDTATYYCVKGADDWGPGLLVTVSS
VL: SSELTQPASLSASPGASASLTCTFSGGINVAGYNILWYQQKAGSPPRYLLRYKSDSDKGQGSGVPSRFSGSKDASANTGILRISGLQSEDEADYYCAIGHSSGWIFGGGTRLTVL
For B4, the EC50 (SUDV VLP) was 0.373 nM and the EC50 (EBOV VLP) was 0.32 nM.

B5: FVM19 (antibody, V domains shown)
VH: QVQLVQSGAEVKRPGESLTISCKTSGYSFTDSWVAWVRQMPGKGLEWLGSIYPGDSDTKYNPSFQGHVTISADKSVTTTYLKWSSLKASDTATYYCVKGSETWGQGVLVTVSS
VL: KPMLTQPASLSASPGASASLTCTFSGGINVAGYHIFWYQQKPGSPPRYLLRYKSDSDKGQGSGVPSRFSGSKDASANTGILRISGLQSEDEADYYCAIGHSSGLLFGGGTRLTVL
B5 showed an EC50 (SUDV VLP) of 5.4 nM and an EC50 (EBOV VLP) of 0.967 nM.

B6: FVM18 (antibody, V domains shown)
VH: QVQLVQSGAEVKRPGESLKISCKTSGYSFTNIWISWVRQMPGKGLEWLGSIYPGDSETKYNPSFQGHVTISADKSVTTTYLKWSSLKASDTATYYCVKGSETWGQGVLVTVSS
VL: NFMLTQPASLSASPGASASLTCTFSGGINVAGYHILWYQQKPGSPPRYLLRYKSDSEKDQGSGVPSRFSGSKDASANRGILRISGLQSEDEADYYCAIGHSSSGWVFGGGTRLTVL
Binder B6 has an EC50 (SUDV VLP) of 1.08 nM and an EC50 (EBOV VLP) of 1.03 nM.

B7: FVM12 (antibody, V domains shown)
VH: EVQLVQSGAEVKRPGESLTISCKTSEYSFTGSWISWVRQMPGKGLEWMGSIYPGDSDTRYSPSFQGQVTISADKSVTTTYLKWSSLKASDTATYYCVKGSETWGQGVLVTVSS
VL: QPVLTQPASLSASLGASASLTCTFSGGINVAGYNILWYQQKPGSPPRFLLRYKSDSDNVQGSGVPSHFSGSKDASTNTGILRISGLQSEDEADYYCAIGHSSGWVFGGGTRLTVL
With B7 the EC50 (SUDV VLP) was 0.673 nM and the EC50 (EBOV VLP) was 0.622 nM.

B8: FVM32 (antibody, V domains shown)
VH: QVQLVQSGAEVKRPGESLRISCKTSGYSFTDSWVAWVRQMPGKGLEWLGSIYPGDSDTRYSPSFQGQVTISADKSITTAYLKWSSLKASDTATYYCVKGSETWGQGVLVTVSS
VL: QPVLTQPASLSASPGASASLTCTFNGGITVPGYDILWYQQKSGSPPRYLLRYKSDSTKDQGSGVPSRFSGSKDASTNTGILRISGLQSEDEADYYCAIGHSSGWIFGGGTRLTVL
For B8, the EC50 (SUDV VLP) was 0.187 nM and the EC50 (EBOV VLP) was 0.66 nM.

B9: FVM25 (antibody, V domains shown)
VH: EVQLVHSGAEVKRPGESLTISCKTSGYTFTDYWIAWVRQMPGKGLEWMASIYPDDSDTRYNPSFQGHVTISADKSISTTYLQWSSLRASDTATYYCVKGSETWGQGVLVTVSS
VL: QLVLTQPASLSASPGTSASLTCTFSGGINVAGYNILWYQQKPGSPPRFLLRYKSDSDNVQGSGVPSHFSGSKDASTNTGILRISGLQSEDEADYYCAIGHSSGWVFGGGTRLTVL
Binder B9 has an EC50 (SUDV VLP) of 0.96 nM and an EC50 (EBOV VLP) of 0.473 nM.

B10: FVM10 (antibody, V domains shown)
VH: QVQLVQSGAEVKRPGESLKISCQTSGYSFTDSWVAWVRQMPGKGLEWLGSIYPGDSETKYNPSFQGHVTISADKSISTAYLQWSSLKASDTATYYCAKGSETWGQGLRVTVSS
VL: QAGLTQPASLSASPGASASLTCTFSGGINVAGYNILWYQQKPGSPPRYLLRYKSDSDKDQGSGVPSRFSGSKDASANTGILRISGLQSEDEADYYCAIGHSSGWIFGGGTRLTVL
B10 gave an EC50 (SUDV VLP) of 0.687 nM and an EC50 (EBOV VLP) of 0.653 nM.

B11: FVM24 (antibody, V domains shown)
VH: EVQLVQSGAEVKRPGESLKISCKTSGYSFTDSWVAWVRQMPGKGLEWMGSIYPGDFQTRYNPSFQGHVTLSADKSISTTYLQWSSLKASDTATYYCVKGSETWGPGVLVTVSS
VL: SSGLTQPASLSASPGASASLTCTFSGGINVAGYNILWYQQKAGSPPRYLLRYKSDSTKDQGSGVPSRFSGSKDVSANTGILRISGLQSDDEADYYCAIGHSSGWIFGGGTRLTVL
Work on B11 yielded an EC50 (SUDV VLP) of 3.2 nM and an EC50 (EBOV VLP) of 0.513 nM.

B12: FVM17 (antibody, V domains shown)
VH: EVQLVQSGAEVKRPGESLTISCKTSGYSFTDSWISWVRQMPGKGLEWMGSIYPGDSDARYNPSFQGHVTISADKSISTTYLKWSSLKASDTATYYCVKGSETWGQGVLVTVSS
VL: QAVVTQPASLSASPGTSASLTCTFSGGINVAGYNILWYQQKPGSPPRFLLRYKSDSDNVQGSGVPSHFSGSKDASANTGILRISGLQSEDEADYYCAIGHSSGWIFGGGTRLTVL
B12 showed an EC50 (SUDV VLP) of 1.43 nM and an EC50 (EBOV VLP) of 0.767 nM.

B13: FVM40 (antibody, V domains shown)
VH: EVQLVQSGAEVKRPGESLTISCKTSGYSFTDSWISWVRQMPGKGLEWMGSIYPGDSETKYNPSFQGHVTISADKSVTTTYLKWSSLKASDTATYYCVKGSETWGQGVLVTVSS
VL: QPMLTQPASLSASPGASASLTCTFSGGINVAGYNILWYQQKAGSPPRYLLRYKSDSTKDQGSGVPSRFSGSKDASANTGILRISGLQSEDEADYYCAIGHSSGWIFGGGTRLTVL
Work on B13 yielded an EC50 (SUDV VLP) of 0.113 nM and an EC50 (EBOV VLP) of 0.173 nM.

B14: FVM37 (antibody, V domains shown)
VH: QVQLVQSGAEVKRPGESLKISCKTSGYRFTSSWISWVRQMPGKGLEWLGSIYPGDSETKYNPSFQGHVTISADKSVTTTYLKWSSLKASDTATYYCVKGSETWGQGVLVTVSS
VL: SSELTQPASLSASPGASASLTCTFSGGINVAGYNILWYQQKAGSPPRYLLRYKSDSTKDQGSGVPSRFSGSKDASANTGILRISGLQSEDEADYYCAIGHSSGWIFGGGTRLTVL
Work on B14 yielded an EC50 (SUDV VLP) of 0.127 nM and an EC50 (EBOV VLP) of 0.227 nM.

B15: FVM38 (antibody, V domains shown)
VH: QVQLVQSGAEVKRPGESLTISCKTSGYSFTDSWIGWVRQMPGKGLEWMASIYPDDSETKYNPSFQGHVTISADKSVTTTYLKWSSLKASDTATYYCVKGSETWGQGVLVTVSS
VL: QPVLTQPASLSASPGASASLTCTFSGGINVAGYNILWYQQKAGSPPRYLLRYKSDSTKDQGSGVPSRFSGSKDASANTGILRISGLQSEDEADYYCAIGHSSGWIFGGGTRLTVL
In the case of B15, the EC50 (SUDV VLP) is reported as 0.147 nM and the EC50 (EBOV VLP) is reported as 0.253 nM.

B16: FVM41 (antibody, V domains shown)
VH: EVQLVQSGAEVKRPGESLKISCKTSGYSFTDTWISWVRQMPGKGLEWMGSIYPGDSETKYNPSFQGHVTISADKSVTTTYLKWSSLKASDTATYYCVKGSETWGQGVLVTVSS
VL: ETVVTQPASLSASPGASASLTCTFSGGINVAGYNILWYQQKAGSPPRYLLRYKSDSTKDQGSGVPSRFSGSKDASANTGILRISGLQSEDEADYYCAIGHSSGVLFGGGTRLTVL
Work on B16 yielded an EC50 (SUDV VLP) of 0.32 nM and an EC50 (EBOV VLP) of 0.36 nM.
